Consider three molecules from patent publication US20260042859A1 (Stanford University, published 2026).

The assay deals with T1, human recombinant PILRa-Fc protein (human, UniProt Q9UKJ1 20-196, limits assumed).
T1 construct: Recombinant protein; also called human PILRa-Fc; not shown: Fc part
The experiment in a line: flow cytometry, PILRa-Fc on Ramos cells expressing FLAG-SMAGP mutant, anti-human-IgG-PE secondary. For orientation: In flow cytometry, cells or beads pass a laser one at a time.

T1 sequence (Q9UKJ1 20-196 limits assumed): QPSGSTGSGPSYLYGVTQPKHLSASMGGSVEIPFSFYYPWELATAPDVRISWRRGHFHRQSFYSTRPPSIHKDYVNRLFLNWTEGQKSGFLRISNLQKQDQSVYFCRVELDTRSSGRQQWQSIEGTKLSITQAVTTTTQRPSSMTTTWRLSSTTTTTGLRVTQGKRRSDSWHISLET

B1: N-terminus FLAG-tagged mutant SMAGP^T7A,T17A expressed on Ramos cells (other, UniProt Q0VAQ4 1-97, looked up)
chain: MTSLLTAPSPREELMTAPILQPTEALSPEDGASTALIAVVITVVFLTLLSVVILIFFYLYKNKGSYVTYEPTEGEPSAIVQMESDLAKGSEKEEYFI
notes: whole, on cells; Double glycosylation-site mutant; also called T7A and T17A double mutations on SMAGP; not shown: N-terminal FLAG tag
As for B1, the binding result is on record as “no binding”.

B2: N-terminus FLAG-tagged mutant SMAGP^T7A,S9A expressed on Ramos cells (other, UniProt Q0VAQ4 1-97, looked up)
chain: MTSLLTAPAPREELMTTPILQPTEALSPEDGASTALIAVVITVVFLTLLSVVILIFFYLYKNKGSYVTYEPTEGEPSAIVQMESDLAKGSEKEEYFI
notes: whole, on cells; Double glycosylation-site mutant; not shown: N-terminal FLAG tag
As to B2, the binding result was “no binding”.

B3: N-terminus FLAG-tagged mutant SMAGP^T6A,T7A expressed on Ramos cells (other, UniProt Q0VAQ4 1-97, looked up)
chain: MTSLLAAPSPREELMTTPILQPTEALSPEDGASTALIAVVITVVFLTLLSVVILIFFYLYKNKGSYVTYEPTEGEPSAIVQMESDLAKGSEKEEYFI
notes: as for B2
As to B3, the binding result was “no binding”.
